Assay results published in the RNAGym collection of RNA variant scans (doi:10.1093/nar/gkz1192).

B1: CPEB3 Ribozyme (parent)
chain: UAACAGGGGGCCACAGCAGAAGCGUUCACGUCGCAGCCCCUGUCAGAUUCUGGUGAAUCUGCGAAUUCUGCUGUAUAUCUC

Variants of: B1
Assay: self-cleavage, relative activity (ratio to wild type); higher = more cleavage; in vitro, sequencing
Outline: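 Libraries of CPEB3 self-cleaving ribozyme mutants came from rounds of error-prone PCR and carried barcodes, which DNA sequencing matched to variants. In vitro transcription used T7 RNA polymerase at 37°C for 5 hours, with a further 15 min in DNase I before EDTA stopped the reaction; the ribozymes cleaved during both steps. The RNA was reverse transcribed with template switching and sequenced on Illumina. Relative activity is the cleaved/total read fraction of a variant divided by that of the unmutated ribozyme, averaged over three batches with at least 5 reads.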

| Variant | self-cleavage |
| --- | --- |
| C37G U80C | 1 |
| C37G U80G | 1.16 |
| C37U | 0.79 |
| C37U A45C | 0.29 |
| C37U A45G | 0.5 |
| C37U A45U | 0.4 |
| C37U A47G | 0.58 |
| C37U A47U | 0.39 |
| C37U A56G | 0.45 |
| C37U A56U | 0.47 |
| C37U A57G | 0.58 |
| C37U A64G | 0.6 |
| C37U A64U | 0.27 |
| C37U A65G | 0.28 |
| C37U A65U | 0.16 |
| C37U A75G | 0.59 |
| C37U A77G | 0.78 |
| C37U A77U | 0.91 |
| C37U C40A | 0.21 |
| C37U C40G | 0.22 |
| C37U C44U | 0.13 |
| C37U C50A | 0.47 |
| C37U C59A | 0.22 |
| C37U C71G | 0.21 |

| Variant | self-cleavage |
| --- | --- |
| C37U C71U | 0.38 |
| C37U C79A | 1.11 |
| C37U C79U | 1.03 |
| C37U G52A | 0.93 |
| C37U G55U | 0.88 |
| C37U G61A | 0.21 |
| C37U G63A | 0.54 |
| C37U G63U | 0.84 |
| C37U G70A | 0.32 |
| C37U G73A | 1.43 |
| C37U U41A | 0.18 |
| C37U U41C | 0.89 |
| C37U U43C | 0.31 |
| C37U U43G | 0.19 |
| C37U U48C | 0.36 |
| C37U U49A | 0.38 |
| C37U U49C | 0.37 |
| C37U U51A | 0.58 |
| C37U U51C | 0.67 |
| C37U U51G | 0.61 |
| C37U U54A | 0.82 |
| C37U U54C | 0.79 |
| C37U U60A | 0.24 |
| C37U U60C | 0.35 |

| Variant | self-cleavage |
| --- | --- |
| C37U U66A | 0.25 |
| C37U U67C | 0.22 |
| C37U U69A | 0.2 |
| C37U U69C | 0.42 |
| C37U U72A | 0.27 |
| C37U U72C | 0.79 |
| C37U U74A | 1.17 |
| C37U U74C | 1.12 |
| C37U U76A | 0.55 |
| C37U U76C | 0.57 |
| C37U U78C | 0.56 |
| C37U U78G | 1 |
| C37U U80A | 0.99 |
| C37U U80C | 0.74 |
| C38A | 0.3 |
| C38A A45U | 0.33 |
| C38A A47C | 0.5 |
| C38A A47G | 0.2 |
| C38A A56C | 0.1 |
| C38A A56G | 0.26 |
| C38A A56U | 0.27 |
| C38A A57G | 0.19 |
| C38A A64C | 0.15 |
| C38A A64U | 0.09 |

| Variant | self-cleavage |
| --- | --- |
| C38A A65U | 0.28 |
| C38A A75U | 0.39 |
| C38A C40A | 0.05 |
| C38A C40U | 0.22 |
| C38A G42C | 0.28 |
| C38A G63U | 0.1 |
| C38A G73C | 0.45 |
| C38A G73U | 0.91 |
| C38A U41A | 0.19 |
| C38A U41C | 0.43 |
| C38A U43A | 0.34 |
| C38A U48A | 0.36 |
| C38A U49A | 0.27 |
| C38A U49C | 0.16 |
| C38A U51A | 0.17 |
| C38A U51C | 0.18 |
| C38A U54A | 0.56 |
| C38A U54C | 0.29 |
| C38A U58C | 0.24 |
| C38A U60A | 0.2 |
| C38A U60C | 0.37 |
| C38A U66A | 0.12 |
| C38A U66C | 0.15 |
| C38A U67A | 0.17 |

| Variant | self-cleavage |
| --- | --- |
| C38A U69A | 0.19 |
| C38A U72A | 0.34 |
| C38A U72C | 0.53 |
| C38A U72G | 0.17 |
| C38A U74G | 0.27 |
| C38A U78C | 0.33 |
| C38A U80A | 0.11 |
| C38A U80C | 0.41 |
| C38G | 0.26 |
| C38G A57G | 0.23 |
| C38G A64G | 0.2 |
| C38G A75G | 0.27 |
| C38G A77U | 0.31 |
| C38G C59U | 0.22 |
| C38G U41C | 0.19 |
| C38G U43A | 0.14 |
| C38G U43C | 0.34 |
| C38G U49A | 0.26 |
| C38G U67C | 0.11 |
| C38G U69A | 0.19 |
| C38G U80A | 0.26 |
| C38G U80C | 0.56 |
| C38U | 0.9 |
| C38U A45G | 0.58 |

| Variant | self-cleavage |
| --- | --- |
| C38U A45U | 0.35 |
| C38U A47G | 0.66 |
| C38U A56G | 0.43 |
| C38U A57G | 0.39 |
| C38U A57U | 0.39 |
| C38U A64C | 0.82 |
| C38U A64G | 0.37 |
| C38U A64U | 0.37 |
| C38U A65G | 0.32 |
| C38U A77G | 0.74 |
| C38U C39U | 0.26 |
| C38U G46A | 0.24 |
| C38U G53A | 0.89 |
| C38U G55A | 0.4 |
| C38U G55U | 0.8 |
| C38U G63A | 0.6 |
| C38U G70U | 0.38 |
| C38U U41A | 0.42 |
| C38U U41C | 0.87 |
| C38U U41G | 0.42 |
| C38U U43C | 0.28 |
| C38U U48C | 0.35 |
| C38U U49C | 0.34 |
| C38U U49G | 0.37 |

| Variant | self-cleavage |
| --- | --- |
| C38U U51A | 0.46 |
| C38U U54A | 0.85 |
| C38U U54C | 0.68 |
| C38U U58C | 0.19 |
| C38U U58G | 0.08 |
| C38U U60C | 0.33 |
| C38U U60G | 0.25 |
| C38U U67A | 0.41 |
| C38U U69A | 0.53 |
| C38U U69C | 0.38 |
| C38U U69G | 0.42 |
| C38U U72A | 0.37 |
| C38U U72C | 1.01 |
| C38U U74A | 1.1 |
| C38U U74C | 1.26 |
| C38U U76A | 1.16 |
| C38U U76C | 1.01 |
| C38U U78A | 1.17 |
| C38U U78C | 0.67 |
| C38U U80A | 0.96 |
| C38U U80C | 1.01 |
| C38U U80G | 1.03 |
| C39A | 0.31 |
